According to patent US20110129459A1 (Chugai, published 2011):

Assays:
[1] = molecular target: T1, rhNR10 (recombinant human NR10) (human, UniProt Q8NI17 20-519, limits assumed); experiment: SPR, Biacore T100; antibody captured on Protein A, rhNR10 as analyte
T1 construct: also called IL-31 receptor; IL31RA
T1 sequence: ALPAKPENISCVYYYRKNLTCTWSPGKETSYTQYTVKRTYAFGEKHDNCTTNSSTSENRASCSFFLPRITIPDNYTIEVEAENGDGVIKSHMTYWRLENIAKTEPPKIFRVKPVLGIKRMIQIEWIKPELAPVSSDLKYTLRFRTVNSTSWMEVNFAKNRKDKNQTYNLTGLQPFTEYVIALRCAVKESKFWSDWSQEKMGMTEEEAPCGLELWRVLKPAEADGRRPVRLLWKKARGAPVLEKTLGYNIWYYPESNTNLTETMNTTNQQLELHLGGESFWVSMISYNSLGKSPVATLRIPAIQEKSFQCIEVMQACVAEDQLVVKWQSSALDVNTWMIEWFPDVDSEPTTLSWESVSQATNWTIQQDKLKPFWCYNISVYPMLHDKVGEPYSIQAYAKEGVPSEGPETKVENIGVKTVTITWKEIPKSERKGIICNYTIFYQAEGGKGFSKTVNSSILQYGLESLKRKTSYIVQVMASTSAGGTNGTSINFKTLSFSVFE
Protocol: Kinetic analysis of the antigen-antibody reaction was carried out using Biacore T100 (GE Healthcare Biosciences). The antigen-antibody interaction was measured by immobilizing rec-Protein A (hereinafter Protein A) (ZYMED) onto a sensor chip, capturing an antibody on the immobilized Protein A, and then reacting the antigen as an analyte. Various concentrations of rhNR10 were used as the antigen. The kinetic parameters, association rate constant kₐ (1/Ms) and dissociation rate constant kd (1/s), were calculated from the sensorgrams obtained by the measurement. Then, KD (M) was determined based on the rate constants. Each parameter was determined using Biacore T100 Evaluation Software version 1.1 (GE Healthcare Biosciences).
The running buffer used was HBS-EP+. Each antibody was prepared at 0.25 μg/ml, or prepared so that about 100 RU would bind to Protein A. rhNR10 used as an analyte was prepared at 0, 38.5, 77.0, and 154 nM, or at 0, 19.25, and 77.01 nM using HBS-EP+. In the measurement, first, the antibody solution was captured on Protein A, and an analyte solution was reacted at a flow rate of 20 μL/min for three minutes. Then, the solution was switched to HBS-EP+, and the dissociation phase was measured for five minutes. After measurement of the dissociation phase, the sensor chip was regenerated by washing with 10 mM glycine-HCl (pH 1.5). The obtained sensorgrams were kinetically analyzed using the Biacore-specific data analysis software, Biacore T100 Evaluation Software Version 1.1.

[2] = molecular target: T2, mhh (human/mouse chimeric NR10 extracellular domain, His/Myc tagged) (human/mouse chimera); experiment: Western blot of purified His/Myc-tagged NR10-ECD probed with H44M58L17, detected with AP-labeled goat anti-human IgG
T2 construct: C-terminal His-Myc tag
T2 chain: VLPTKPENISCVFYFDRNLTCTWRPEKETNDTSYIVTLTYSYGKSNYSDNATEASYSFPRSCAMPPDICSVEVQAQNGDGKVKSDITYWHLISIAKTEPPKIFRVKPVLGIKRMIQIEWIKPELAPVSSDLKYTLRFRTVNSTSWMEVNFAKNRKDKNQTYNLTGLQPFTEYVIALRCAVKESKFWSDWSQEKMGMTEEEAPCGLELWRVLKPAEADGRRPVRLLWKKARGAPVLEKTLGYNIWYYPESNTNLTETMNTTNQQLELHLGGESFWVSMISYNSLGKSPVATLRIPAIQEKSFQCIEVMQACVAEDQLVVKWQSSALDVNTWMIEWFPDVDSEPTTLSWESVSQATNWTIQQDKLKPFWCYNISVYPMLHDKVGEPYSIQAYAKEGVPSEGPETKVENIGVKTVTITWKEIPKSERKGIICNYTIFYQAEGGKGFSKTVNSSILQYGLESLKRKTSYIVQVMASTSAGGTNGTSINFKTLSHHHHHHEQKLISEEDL
Protocol: (§1) Each of the prepared human/mouse wild-type and chimeric antigens was electrophoresed at 0.5 μg/lane on three 4-20% polyacrylamide gels (Daiichi Pure Chemicals Co.). The proteins were electro-transferred onto PVDF membranes (Millipore) in a semi-dry blotting apparatus, and the membranes were blocked with TBS containing 5% skim milk. One membrane was incubated with 5 μg/ml of H44M58L17 (detection system for humanized anti-human NR10 antibody); another with 5 μg/ml of ND41 (detection system for mouse anti-human NR10 antibody); and the other one with anti-Myc antibody (SantaCruz, Cat.#sc-789) 500-times diluted with TBS containing 5% skim milk (detection system for Myc tag) at room temperature for one hour.
(§2) After washing three times with TBS containing 0.05% Tween™ 20, the secondary antibodies were incubated with the membranes. Alkaline phosphatase-labeled goat anti-human IgGγ (BIOSOURCE, Cat. #AHI0305) was used to detect humanized anti-human NR10 antibody; alkaline phosphatase-labeled goat anti-mouse IgG (SantaCruz, Cat. #sc-2008) was used to detect mouse anti-human NR10 antibody; and alkaline phosphatase-labeled goat anti-rabbit IgG (SantaCruz, Cat. #sc-2057) was used to detect Myc tag. The reaction was carried out at room temperature for one hour. […]

[3] = molecular target: T3, mmh (human/mouse chimeric NR10 extracellular domain, His/Myc tagged) (human/mouse chimera); experiment: Western blotting, 0.5 µg antigen per lane
T3 construct: C-terminal His-Myc tag
T3 chain: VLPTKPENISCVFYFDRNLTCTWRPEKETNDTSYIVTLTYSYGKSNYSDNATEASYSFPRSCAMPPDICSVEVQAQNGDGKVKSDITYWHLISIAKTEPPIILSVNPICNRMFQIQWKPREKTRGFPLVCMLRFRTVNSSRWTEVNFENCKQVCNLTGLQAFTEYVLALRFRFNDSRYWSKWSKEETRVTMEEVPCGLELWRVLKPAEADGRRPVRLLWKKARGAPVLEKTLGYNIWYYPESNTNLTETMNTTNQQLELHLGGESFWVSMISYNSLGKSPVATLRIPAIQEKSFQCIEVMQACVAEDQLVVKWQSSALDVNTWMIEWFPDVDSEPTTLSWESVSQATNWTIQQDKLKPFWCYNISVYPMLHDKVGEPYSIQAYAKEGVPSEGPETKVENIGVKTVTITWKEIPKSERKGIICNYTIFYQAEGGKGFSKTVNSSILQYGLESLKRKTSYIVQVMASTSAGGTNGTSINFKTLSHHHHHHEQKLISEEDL
Protocol: as §1, §2

B1: H44L17 (H44-M58 / L17) (antibody, V domains shown)
VH: QVQLVQSGAEVKKPGASVKVSCKASGYTFTGYIMNWVRQAPGQGLEWMGLINPYNGGTDYNPQFQDRVTITADKSTSTAYMELSSLRSEDTAVYYCARDGYDDGPYTLETWGQGTLVTVSS
VL: DIQMTQSPSSLSASVGDRVTITCQASEDIYSFVAWYQQKPGKAPKLLIYNAQTEAQGVPSRFSGSGSGTDFTLTISSLQPEDFATYYCQHHYDSPLTFGGGTKVEIKR
notes: also called humanized anti-human NR10 antibody
B1 showed a Kd [1] of 1.2 nM, a koff [1] of 0.00072 s⁻¹ and a kon [1] of 610000 M⁻¹ s⁻¹. B1: no binding [2]; no binding (tested: 5 µg/ml) [3].
